Data on three molecules can be found in patent US20230272390A1, “COMPOSITIONS AND METHODS FOR HEMOGLOBIN PRODUCTION” (THE CHILDREN'S HOSPITAL OF PHILADELPHIA, priority 2020, published 2023).

Data set [1] deals with T1, ZNF410 ZF1-5 (GST fusion) (Homo sapiens, UniProt Q86VK4 SEQ:217-366).
T1 sequence: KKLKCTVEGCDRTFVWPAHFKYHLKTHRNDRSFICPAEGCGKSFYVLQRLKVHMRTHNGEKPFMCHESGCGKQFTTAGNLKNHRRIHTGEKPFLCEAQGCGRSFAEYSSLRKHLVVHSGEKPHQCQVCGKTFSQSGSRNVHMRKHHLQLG
The experiment in a line: FP; no measurable binding up to 2.5 uM; shares 7/17 bp with consensus. The note with it: tags: GST N-terminal (pGEX-6P-1, pXC2180); label: FAM 5' (top strand). The method, then: To further gain insight into the molecular basis of how the ZNF410 tandem ZF domain recognizes its targeting DNA sequence, crystallization of the ZNF410-DNA complex was performed. The binding affinity of the ZNF410 ZF domain (ZF1-5) with the consensus motif was quantified by fluorescence polarization using purified GST fusion protein (Patel, et al. (2016) Methods Enzymol., 573:387-401). […] Next, the crystal structure of the ZF domain in complex with the same 17-bp oligo (5′-3′: […] (SEQ ID NO: 19); 3′-5′: […] (SEQ ID NO: 20)) containing the consensus motif was determined. The structure of the protein-DNA complex was solved by the single-wavelength anomalous diffraction (SAD) method (Hendrickson, et al. (1990) EMBO J., 9:1665-1672) at 2.75 Å resolution. As in conventional C2H2 ZF proteins (Wolfe, et al. (2000) Annu. Rev. Biophys. Biomol. Struct., 29:183-212), each of five fingers of ZNF410 comprises two strands and a helix, with two histidine residues in the helix together with one cysteine in each strand coordinating a zinc ion, forming a characteristic tetrahedral C2-Zn—H2 structural unit that confers rigidity to the fingers. When bound to DNA, ZF1-5 occupies the DNA major groove, with their α-helices toward DNA and the strands and the C2-Zn—H2 units facing outside (FIGS. 6B and C). […]

Data set [2] addresses T2, ZNF410 ZF1-5 (GST removed) (Homo sapiens, UniProt Q86VK4 SEQ:217-366).
T2 sequence: T1 sequence
Nature of the data set: structure; crystal structure 2.75 A, PDB 6WMI. The note with it: tags: none (GST cleaved with PreScission protease); label: FAM 5' (top strand) in FP.

Data set [3] deals with motifs from the CHD4 promoter and enhancer sites. Nature of the data set: EMSA with COS-7 nuclear extracts and radiolabeled probes. The format is binding, human. The following applies: COS nuclear extracts, FLAG-tagged constructs, radiolabeled CHD4 motif probes. How it is done: Nuclear extracts were prepared from COS-7 cells transiently transfected with ZNF410 full-length and ZNF410 ZF1-5 plasmids. FuGENE® 6 (Promega) was used to transfect 5 μg of vector into 100 mm plates of COS-7 cells. A pcDNA3 empty vector was used as control. Cells were harvested 48 hours after transfection and nuclear extracts prepared (Andrews, et al. (1991) Nucleic Acids Res., 19:2499).
EMSAs were performed (Crossley, et al. (1996) Mol. Cell Biol., 16:1695-1705). The sense oligonucleotide was labelled with [γ-^32P]-adenosine triphosphate (Perkin Elmer) and boiled at 100° C. for 1 minute before addition of the antisense oligonucleotide and annealing of probe via slow cooling from 100° C. to room temperature. Probes were purified using Quick Spin Columns for radio-labelled DNA Purification (Roche). Nuclear extracts were harvested from COS-7 cells and samples and loaded on a 6% native polyacrylamide gel in TBE buffer (45 mM Tris, 45 mM boric acid, 1 mM EDTA). A ‘COS empty’ control lane was included to show binding of any background endogenous protein to the probe. […] Gels were run at 250 V for 1 hour, 45 minutes at 4° C. then dried under vacuum. […]
ZNF410 contains five tandem C2H2-type zinc fingers (ZFs) potentially involved in DNA binding (FIG. 5A). […] Direct DNA binding by full length (FL) ZNF410 to sequences found at the CHD4 gene was assessed by electrophoretic mobility shift assays (EMSAs). […]
Background: Mobility shift assays separate free from complexed probe on a gel.

Another data set addresses T3, endogenous ZNF410 (Homo sapiens, UniProt Q86VK4).
T3 construct: endogenous in cells; host or cells: HUDEP-2 (HUDEP-2-Cas9) cells, differentiated
T3 sequence (Q86VK4 1-478): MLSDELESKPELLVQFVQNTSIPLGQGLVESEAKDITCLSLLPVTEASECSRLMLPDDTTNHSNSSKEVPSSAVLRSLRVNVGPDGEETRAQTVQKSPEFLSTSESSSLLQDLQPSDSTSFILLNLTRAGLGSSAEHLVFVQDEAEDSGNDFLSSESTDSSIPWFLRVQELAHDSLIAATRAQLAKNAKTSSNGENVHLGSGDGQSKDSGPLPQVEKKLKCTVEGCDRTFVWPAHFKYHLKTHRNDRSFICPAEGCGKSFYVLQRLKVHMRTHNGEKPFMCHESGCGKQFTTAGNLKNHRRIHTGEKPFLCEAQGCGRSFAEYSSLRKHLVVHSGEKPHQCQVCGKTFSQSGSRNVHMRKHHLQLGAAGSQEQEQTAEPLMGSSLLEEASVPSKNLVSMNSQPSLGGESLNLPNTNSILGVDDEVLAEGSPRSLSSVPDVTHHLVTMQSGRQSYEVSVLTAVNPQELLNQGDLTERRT
Nature of the data set: RT-qPCR in HUDEP-2 cells overexpressing HA-tagged ZNF410 constructs. Type of data set: cell-based. The method, then: HUDEP-2 cells were cultured and differentiated as described (Kurita, et al. (2013) PLoS One 8:e59890). Briefly, StemSpan™ Serum-Free Expansion Medium (SFEM) supplemented with 50 ng/ml human stem cell factor (SCF), 10 μM dexamethasone, 1 μg/ml doxycycline, 3 IU/ml erythropoietin and 1% penicillin/streptomycin was utilized for routine cell maintenance. Cell density was kept at 0.1-1×10^6/ml. HUDEP-2 cells were differentiated for 6-7 days in IMDM supplemented with 50 ng/ml human SCF, 3 IU/ml erythropoietin, 2.5% fetal bovine serum, 250 μg/ml holo-transferrin, 10 ng/ml heparin, 10 μg/ml insulin, 1 μg/ml doxycycline and 1% penicillin/streptomycin.
SgRNAs were cloned into a lentiviral U6-sgRNA-EFS-GFP/mCherry expression vector (LRG, Addgene: #65656) by BsmBI digestion. The ZNF410 cDNA (clone ID: OHu10535), CHD4 cDNA (clone ID: OHu28780) were purchased from GenScript and were sub-cloned into a lentiviral vector pSDM101-IRES-GFP. ZNF410 variants were sub-cloned into pSDM101-IRES-GFP vector. The N-terminal HA tag was introduced by PCR. For EMSA, the ZNF410 full length or different ZF versions were sub-cloned into mammalian expression vector pcDNA3.
Lentivirus was produced as described (Grevet, et al. (2018) Science 361:285-290). Briefly, 10-20 μg of expression vectors, 5-10 μg of pVSVG (pMD2.G) and 7.5-15 μg of psPAX2 package plasmids, and 80 μl of 1 mg/ml polyethylenimine (PEI) were mixed, incubated for 15-20 minutes, and added to HEK293T cells grown in 10 cm plates to above 90% confluence. Media were replaced 6-8 hours post transfection, virus was collected 24 hours and 48 hours post-transfection and pooled. For infection, virus-containing supernatant was mixed with the indicated cell lines with 8 μg/ml polybrene and 10 mM HEPES, and then spun at 2250 rpm for 1.5 hours at room temperature. Infected HUDEP-2 cells were selected for mCherry+ or GFP+ cell sorting at 48 hours post-infection.
Total RNA was purified using the RNeasy® Plus Mini Kit (Qiagen), including an on-column DNAse treatment using RNase-free DNase set (Qiagen) to remove genomic DNA. Reverse transcription was accomplished using iScript™ Supermix (Bio-Rad). qPCR reactions were prepared with Power SYBR® Green (ThermoFisher Scientific). Quantification was performed using the ΔΔCT method.
Overexpression of ZF1-5 but not ZF2-4 should compete with endogenous ZNF410 for chromatin binding, thus acting in a dominant-negative manner. To test this hypothesis, a construct containing HA-tagged ZF1-5 or ZF2-4 driven by the EF1α promoter was introduced via lentiviral infection into HUDEP-2 cells. As control, the expression of full-length HA-tagged ZNF410 was forced. […] Moreover, full-length HA-ZNF410 when overexpressed to similar levels to HA-ZF1-5 also produced similar binding patterns (FIG. 4A). […] Thus, the ZF region is sufficient for chromatin occupancy but insufficient for CHD4 gene activation. […] Finally, the impact of ZNF410 expression on γ-globin levels was also measured.
(Quantitative PCR measures a nucleic acid by following its amplification.)

B1: negative control oligo (dsDNA)
DNA 1: TCCACTGCCAGGACCTTT
DNA 2: AAAAGGTCCTGGCAGTGG
Regarding B1, the binding result in data set [1] was “no binding”.

B2: ZNF410 consensus oligo 17 bp (dsDNA)
DNA 1: CACATCCCATAATAATG
DNA 2: CATTATTATGGGATGTG
In the case of B2, in data set [2], the binding result is listed as “binds”.

B3: ZNF410 FL: full-length tagged human ZNF410 (478 amino acids) overexpressed as control (protein)
chain: T3 sequence (Q86VK4 1-478)
modifications: left off: small tags and cut ends
notes: full-length tagged human ZNF410 (478 amino acids) overexpressed as control
B3: the “DNA binding in EMSA” value in data set [3] is listed as “comparable binding to each of the four DNA probes”. Also, the “effect on CHD4 expression” value with endogenous ZNF410 (overexpression in HUDEP-2 cells) is “increased”. Further, the “effect on γ-globin mRNA levels” value in the data set with endogenous ZNF410 (overexpression in differentiated HUDEP-2 cells) is given as “slight decrease”.
